Where no end group is shown, it is not given here.
T1: Erh1 (Erh1wt) (Schizosaccharomyces pombe, UniProt G2TRN4)
T1 construct: A region of Erh1 (residues 1–104) was amplified by PCR; made in house; host or cells: Escherichia coli BL21 (Gold)
T1 sequence (G2TRN4 1-104): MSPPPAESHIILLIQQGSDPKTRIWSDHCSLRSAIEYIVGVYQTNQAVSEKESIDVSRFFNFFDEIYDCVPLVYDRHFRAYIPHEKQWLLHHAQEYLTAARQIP

B1: mutant Mmi^W112A protein: full-length Mmi1 carrying W112A, expressed in S. pombe (protein)
chain: MSNTNFSTSRSSKSIPELPNLEALRSLWPPPSLNESGDTRSVWTTHTGEPVASSVLSTSGSNNFSSPLKRPAPESHDAPIGRRLMVDDPRLIKHGKYDFSRHCTDYGHSYEAPYFRSLRRESMLYHTSGSYPESQPPYSSYSTDAPHYYHAGSESSAYYDSRSRLHGIQPPPKRRTLSPPPRRLADPVVVGSSRYVEEEVYRRPPYTLASEVPSSASAYQAGYSSYPVRSSPQLSHEDTRHGIASSGSTRYPFVPANTRASHSPSLLEPYAHSLPSSVAPVGAYPEKSSYLLSNSSNDSASRKEKPKARASTPPPLNFSRASEHRNEKGERISMINPRVVLDENGISHRSRYFIMLCDNETAIAHAKKTSIWAVKKDSSKRISDAYKKASVYFIFVAQQTYNALGYAQVVSDLNSTELPFWSDSSHAGGVRIKWIKTCNLFSAEISEIVSHMDHGSEARDGMEMMYDEGSRLCTLINYAIMKRIGRDR
modifications: left off: FLAG, end not stated, kept
notes: full-length Mmi1 carrying W112A, expressed in S. pombe

Legend:
Erh1 (Erh1wt) = target: T1, Erh1 (Erh1wt); test: Isothermal titration calorimetry (ITC), SUMO-tagged Mmi1 peptides titrated into wild-type Erh1; format: binding, S. pombe; conditions: Erh1wt, ITC, 293 K, 20 mM Tris-HCl pH 7.5, 150 mM NaCl, SUMO-tagged Mmi1 peptide, single-site model
Protocol: (§1) The titration protocol consisted of a single initial injection of 1 µl, followed by 19 injections of 2 µl SUMO-tagged Mmi1 peptides into the sample cell containing Erh1 protein. Thermodynamic data were analyzed with a single-site binding model using MicroCal PEAQ-ITC Analysis Software provided by the manufacturer.

Erh1 R23A = target: T2, Erh1 R23A (Schizosaccharomyces pombe, UniProt G2TRN4, R23A); test: ITC, Mmi1 peptide titrated into Erh1 R23A; format: binding, S. pombe
T2 construct: A region of Erh1 (residues 1–104) was amplified by PCR; made in house; host or cells: Escherichia coli BL21 (Gold)
Protocol: as §1

Erh1 D27A = target: T3, Erh1 D27A (Schizosaccharomyces pombe, UniProt G2TRN4, D27A); test: ITC, Mmi1 peptide titrated into Erh1 D27A; format: binding, S. pombe
T3 construct: A region of Erh1 (residues 1–104) was amplified by PCR; made in house; host or cells: Escherichia coli BL21 (Gold)
Protocol: as §1

Erh1 D68A = target: T4, Erh1 D68A (Schizosaccharomyces pombe, UniProt G2TRN4, D68A); test: ITC, Mmi1 peptide titrated into Erh1 D68A; format: binding, S. pombe
T4 construct: A region of Erh1 (residues 1–104) was amplified by PCR; made in house; host or cells: Escherichia coli BL21 (Gold)
Protocol: as §1

Erh1 E85A = target: T5, Erh1 E85A (Schizosaccharomyces pombe, UniProt G2TRN4, E85A); test: ITC, Mmi1 peptide titrated into Erh1 E85A; format: binding, S. pombe; conditions: 293 K, pH 7.5
T5 construct: A region of Erh1 (residues 1–104) was amplified by PCR; made in house; host or cells: Escherichia coli BL21 (Gold)
Protocol: as §1

Erh1 = test: GST pull-down of Erh1 with GST-tagged Mmi1 fragments, Coomassie; format: binding, S. pombe; conditions: GST-Mmi1 fusion incubated with Erh1, glutathione-agarose, SDS-PAGE
From the text: Fig. 1 Mmi1 interacts with Erh1 in a 2:2 stoichiometry. a Shown is a schematic representation of the domain architecture of Mmi1. The disorder score from DISOPRED3 Server[62] and the conservation score are shown below. The conservation score is generated by a Protein Residue Conservation Prediction Server[63] from the sequence alignment of Mmi1 orthologues from S. pombe, S. cryophilus, S. octosporus, and S. japonicus. b–d Interactions of GST tagged Mmi1 peptides (GST-Mmi1) with Erh1 visualized by Coomassie blue staining. The indicated GST-Mmi1 fusion proteins or GST alone were incubated with Erh1. The complexes were collected with glutathione-agarose resin and bound proteins were eluted and then subjected to SDS-PAGE. GST or GST-Mmi1 fusion proteins without Erh1 are shown as a negative control. Source data are provided as a Source Data file. e The raw ITC titration data of Erh1 with SUMO tagged Mmi1^95–122 and its fitting curve are shown. KD dissociation constant, DP differential power, N binding stoichiometry, ΔH binding enthalpy. f ITC fitting curves of Erh1 using SUMO tagged Mmi1^95–122 (magenta), Mmi1^106–122 (blue) and Mmi1^95–111 (green) are shown. g Size-exclusion analysis of Erh1 (magenta) and Erh1-Mmi1^95–122 (blue). Marker sizes are 62.9 KDa (Albumin), 46.7 KDa (Ovalbumin), 20.3 KDa (Chymotrypsinogen), 14.6 KDa (Ribonuclease A). Also shown are theoretical monomer sizes (kDa) of Erh1 protein and Mmi1^95–122 peptide TEXT PRINTED IN THE PICTURE: (e) Mmi1^95–122 - Erh1: KD (μM) 0.83±0.19; N (sites) 0.90±0.01; ΔH (kJ per mol) −106±3.02 | (f) Mmi1^95–122: Erh1 KD (μM): 0.83±0.19 | (f) Mmi1^106–122: Erh1 KD (μM): 9.94±1.19 | (f) Mmi1^95–111: Erh1 KD (μM): no binding | (g) Erh1: 13.2 kDa | (g) Mmi1^95–122: 3.5 kDa
A region of Erh1 (residues 1–104) was amplified by PCR from the S. pombe genome and cloned into a modified pET28a (Novagen) vector without a thrombin protease cleavage site (p28a). GST-Mmi1^YTH was sub-cloned from a Mmi1^YTH-p28a construct to a modified PGex-4T1 vector with a TEV protease cleavage site (Tev4T1). […]

[1] = format: physicochemical; conditions: pH 7.5
Erh1-Mmi1 interaction = test: Co-immunoprecipitation of Erh1-GFP and FLAG-Mmi1 from yeast cells; format: cell-based, S. pombe; conditions: FLAG-Mmi1 WT replaced with mutant; Erh1-GFP; YEA medium, 32 °C
Protocol: Cells were grown to mid-log phase in rich YEA medium at 32 °C, harvested, and flash-frozen in liquid nitrogen prior to extract preparations. Extracts prepared from yeast cells expressing epitope tagged proteins under the control of native gene promoters were used for immunoprecipitations and Western blot analyses as described. Total protein extracts for western blotting analyses were prepared by trichloroacetic acid (TCA) precipitation. Briefly, cells were lysed using glass beads in 20% TCA buffer. Next, lysates were diluted using 5% TCA buffer and total protein pellets were concentrated by centrifugation at 21,000×g for 5 min. Precipitated protein was dissolved in sodium dodecyl sulfate (SDS) sample buffer prior to resolution in a polyacrylamide gel. For immunoprecipitation experiments, cells were lysed using glass beads in 2X HC lysis buffer (300 mM HEPES buffer pH 7.6, 100 mM KCl, 2 mM EDTA, 0.2% NP-40, and 0.2 mM DTT) containing protease inhibitor cocktail (11697498001, Roche) and 2 mM PMSF. Lysate cleared of cellular debris was incubated with antibody-conjugated beads for immunoprecipitation. […]

T3 sequence (G2TRN4 whole entry D27A, the tested form may be a part): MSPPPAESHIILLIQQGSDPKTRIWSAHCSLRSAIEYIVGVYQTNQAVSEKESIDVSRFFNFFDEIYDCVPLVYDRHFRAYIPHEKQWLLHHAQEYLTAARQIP
T2 sequence (G2TRN4 whole entry R23A, the tested form may be a part): as the sequence (G2TRN4 whole entry D27A, the tested form may be a part) above, with R23A, A27D counted along it
T4 sequence (G2TRN4 whole entry D68A, the tested form may be a part): as the sequence (G2TRN4 whole entry D27A, the tested form may be a part) above, with A27D, D68A counted along it
T5 sequence (G2TRN4 whole entry E85A, the tested form may be a part): as the sequence (G2TRN4 whole entry D27A, the tested form may be a part) above, with A27D, E85A counted along it

| Molecule | ΔH (binding enthalpy) (Erh1 (Erh1wt)) [kJ per mol] | ΔH (binding enthalpy) (Erh1 (Erh1wt); listed as Mmi195-11 2) [kJ per mol] | binding affinity (in words) (Erh1 R23A; Erh1 Arg23 substituted with alanine) | ΔH (binding enthalpy) (Erh1 R23A; Erh1 R23A, 293 K, pH 7.5) [kJ per mol] | binding affinity (in words) (Erh1 D27A; Erh1 Asp27 substituted with alanine) | ΔH (binding enthalpy) (Erh1 D27A; Erh1 D27A, 293 K, pH 7.5) [kJ per mol] | ΔH (binding enthalpy) (Erh1 D68A; Erh1 D68A, 293 K, pH 7.5) [kJ per mol] | affinity (in words) (Erh1 D68A; Erh1^D68A mutant) | ΔH (binding enthalpy) (Erh1 E85A) [kJ per mol] | interaction with Erh1 (GST pull-down) (Erh1) | solubility of synthesized peptide [1] | Erh1-Mmi1 interaction (co-immunoprecipitation) (Erh1-Mmi1 interaction) |
| --- | --- | --- | --- | --- | --- | --- | --- | --- | --- | --- | --- | --- |
| Mmi1^95–122: Mmi1 fragment, residues 95–122, Erh1-interacting domain (EID) ({SUMO}-GKYDFSRHCTDYGHSYEWPYFRSLRRES; not fully specified) | −106±3.02 | -106±3.02 | significantly reduced the binding affinity | -24.2±4.87 | significantly reduced the binding affinity | -58.8±1.58 | -47.6±1.30 | reduced | -81.9±1.70 | sufficient for interaction | could not be dissolved in the interaction buffer | – |
| B1 | – | – | – | – | – | – | – | – | – | – | – | drastically diminished the Erh1-Mmi1 interaction |

— article PMC6335422 (Nature Communications, 2019)
